In data set [1] the target is Recreated full-length transaldolase of Bacillus methanolicus MGA3 (Ta^MGA3rec), C-terminal hexahistidine-tagged (Bacillus methanolicus MGA3). The experiment in a line: SEC; gel filtration of 1 mg purified Ta dissolved in 2 ml of 20 mM Tris-HCl, pH 7.8, with Ta activity assays of the eluted fractions; eluted in a single fraction corresponding to 54 kDa. Background: SEC sorts molecules by how far they enter the pores of the column.

Substrate in the data set “purified protein”: O=C[C@H](O)[C@H](O)COP(=O)(O)O
The experiment in a line: purified protein. The following applies: co-substrate F6P, 50 mM Tris-HCl pH 7.8, 50 °C, 0.25 mM NADH. Type of data set: biochemical, Bacillus methanolicus.

Data set [2] concerns the molecule itself. The experiment in a line: SEC; gel filtration of 1 mg purified Ta dissolved in 2 ml of 20 mM Tris-HCl, pH 7.8, with Ta activity assays of the eluted fractions; eluted in a single fraction corresponding to 54 kDa.

Broadly, the stoichiometry N is a count of units in the complex or per binding partner. What is called Km is the substrate concentration at which the rate is half of its maximum. What is called kcat is the number of substrate molecules converted per active site and unit of time at saturation.

Molecule “Recreated full-length transaldolase of Bacillus methanolicus MGA3 (Ta^MGA3rec), C-terminal hexahistidine-tagged (enzyme)” displayed a stoichiometry N in data set [1] of 2.

B1: Transaldolase of Bacillus methanolicus PB1 (Ta^PB1), C-terminal hexahistidine-tagged (enzyme, UniProt I3E1B6 1-229, looked up)
chain: MIQNSIQRNKGGVIIKFFIDTANIDEIREAHSLGILSGVTTNPSLVAKEKNVKFHDRLREIAGLVPGSVSAEVIALDTEGMIKEGRELASIAPNITVKVPMTPESLKAVHALSKEGIKTNVTLIFSANQALLAARAGATYVSPFLGRLDDIGHNGLELISTIADIFAIHQIKTEIIAASIRHPQHVTEAALKGAHIATLPYKVILQLFKHPLTDKGIEAFLADWKKRGQ
notes: Transaldolase (Ta) of Bacillus methanolicus PB1, UniProt I3E1B6; also called PB1 Ta protein; PB1 Ta gene product; source: E. coli BL21 (DE3), pET28b-ta^PB1, purified (Ni-NTA chromatography)
Turning to B1, in the data set “purified protein”, the Km stood at 2500 µM, the Vmax is given as 8.9 U/mg, the catalytic constant (kcat) was 4 s⁻¹ and the kcat/Km is listed as 1.6 s^− 1 mM^− 1. In data set [2], the “stoichiometry N” value amounted to 2.
